In the nanobody polyreactivity screen of Harvey et al. (2022):

Assay: yeast display, Sf9 membrane polyspecificity reagent, FACS + sequencing; frameworks hold sequencing errors
Procedure, shortened: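 Galactose-induced (36–48 hours) yeast carrying a synthetic nanobody display library were exposed to 10% biotinylated, detergent-solubilized Sf9 membrane reagent at 4 °C for 1 hour. FACS followed streptavidin microbead enrichment, using low and high (top ~1%) gates for expression (anti-HA) and reagent binding (streptavidin). Colony PCR, MiSeq 2 × 250 sequencing and CDR-length filtering followed. Labels for polyreactivity reflect the gate of origin.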

Sequence | polyreactivity (PSR sort gate)
QVQLVESGGGLLQAGGSLRLSCAASGSIFRYYAKGWYRQAPGKERELVAAISYSGGRTYYADSVKGRFTISRDNAKNTVYLQMNSLKPEDTAVYYCNAGAGKRGYDYWGQGTQVTVSS | low polyreactivity
QVQLVESGGGLLQAGGSLRLSCAASGSIFSRYVMGWYRQAPGKERELVAGISGSGGSTYYADSVKGRFTISRDNAKNTVYLQMNSLKPEDTAVYYCNAATSRLYYNHYTRYNYWGQGTQVTVSS | high polyreactivity
QVQLVESGGGLLQAGGSLRLSCAASGSIFTAYAMGWYRQAPGKESELVAAIDDSGDSTYYADSVKGRFTISRDNAKHTVYLQMNSLKTEDTAVYYCKAEYRVNKEYDDWGQGTQVTVSS | low polyreactivity
QVQLVESGGGLLQAGGSLRLSCAASGSNFDRYGRGWYRQAPGTERELVADITSDGSTNYADSVKGRFTISRDNAKNTVYLQMNSLKPEDTAVYYCAVSYTAYSVGYDYWGQGTQVTVSS | low polyreactivity
QVQLVESGGGLLQAGGSLRLSCAASGSTFHRNAMGWYRQAPGKERELVAAISWRAGSTYYADSVKGRFTISRDNAKNTVYLQMNSLKPEDTAVYYCNAVERYWDYGYWGQGTQVTVSS | low polyreactivity
QVQLVESGGGLLQAGGSLRLSCAASGSTFKFNAMGWYRQAPRKERELVAAISNRGGTTYYADSVKGRFTISRDNAKNTVYFHMNSLKPEDTAVYYCAAGRVQSYYYWGQGTQVTVSS | high polyreactivity
QVQLVESGGGLLQAGGSLRLSCAASGSTFRGNALGWYRQAPGKVRELVAAINSSGGRTYYADSVKGRFTISRDNAKNTVYLQMNSLKPEDTAVNYCAARGRRTGDYDYWGQGTQVTVSS | high polyreactivity
QVQLVESGGGLLQAGGSLRLSCAASGSTFTAYAMGWYRQAPGKERELVADISDSGGSTYYADSEKGRFTISRDNAKNTVYLQINSLKPEDTAVYYCAVHVRAFVVSKFDSRGQGTQVTVSS | low polyreactivity
QVQLVESGGGLLQAGGSLRLSCAASGSTFWFYAMGWYRQAPGKERELVDVISNSGSTYYADSEKGRFTISRDNAKNTVYLQMNSLKPEDTAVYNCAADGFYYPNWGRFSYYYWGQGTLVTVSS | low polyreactivity
QVQLVESGGGLLQAGGSLRLSCAASGYTFWLYAMGWYRQAPGKDRELVATISRRAGTTYYADSVKGRFTISRDNAKNTVYLQMNSLKPEDTAVYYCAKKSHSLLGQYGEDYDYWGQGTQVTVSS | low polyreactivity
QVQLVESGGGLLQAGGSLRLSCAASVRFLCYGWYRQAPGKERELVAAITWSGGSTYYADSVKGRFTISRDNAKNTVYLLMNSLKPEDTAVYYCARYPDSYWYGRKNYYWGQGTQVTVSS | high polyreactivity
QVQLVESGGGLLQAGGSLRLSCADSGRTFCPNVMGCYRQAPGKERELVAAITWGDASTYYADSVKGRFTISRDNAKNTVYLQMNCLKPEDTAVYYCGAKSSTRGDYWGQGTQVTVSS | low polyreactivity
QVQLVESGGGLLQAGGSLRLSCSASGRIFPSYAMGWYRQAPGKERELVAAISSSGGRTYYADSVKGRFTISRDNAKNTVYLQLNSLKPEDTAVYYCAARWVQYGVRYDFWGQGTQVTVSS | high polyreactivity
QVQLVESGGGLLQAGGSLRVSCAASGFIFVLYAMGWYRQAPGKERELVAAITWSTGCTYYADSVKGRFTISRDNAKNTVYLHMNSLKPEDTAVYYCSADQYIFGIWFDYWGQGTQVTVSS | high polyreactivity
QVQLVESGGGLLQAGGSLSLSCAASGRTFVPYTMGWYRPAPGKERELVAAISWSDGTTYYADSVKGRFTISRDNAKNTVYLQMNSLKPEDTAVYYCNDDVYLFNYFGGWYYAGYDYWGQGTQVTVSS | high polyreactivity
QVQLVESGGGLLQEGGSLRLSCAASGRTFYYYTMGWYRQAPGIERELVAAITHGGSTYYADSVKGRFTISRDNAKNTVYLQMNSLTPEDTAVYYCNAVYHYPYEYWGHGTQVTVSS | high polyreactivity
QVQLVESGGGLVEAGGSLRLSCAASGFIFGGYDMGWYRPAPGKQRELVAAITRSGGSTYYADSVKGRFTISRDNAKNTVYLEMNSLKPEDTAVYYCAAERQPYRTSSYNYWGQGTQVTVSS | high polyreactivity
QVQLVESGGGLVEAGGSLRLSCAASGFNIPIYAMGWYRPAPGKERELVASITRSGGSTYYADSVKGRFTISRDNAMNTVYLQMNSLKPEDTAVYFCAASVKIISYLVHSELLGGELDYWGQGTQVTVSS | low polyreactivity
QVQLVESGGGLVEAGGSLRLSCAASGIIFVSYDMGWYRQAPGKERELVAAINRGGRTYYADSVKGRFTISRDNAKNTVYLQMISLKPEDTAVYYCAAQFHFRPFSWTYDYWGQGTQVSVSS | high polyreactivity
QVQLVESGGGLVEAGGSLRLSCAASGLTFYLYDMGWYRQAPGKERELVAAISRRGTSTYYADSVKGRFTISRDNAKNSVYLQMNSLKPEDTAVYYCAADRKVGRDYWGQGTQVTVSS | high polyreactivity
QVQLVESGGGLVEAGGSLRLSCAASGRIFHANAMGWYRQAPGKERELVAGISRHGGRTYYADSVKGRFTMSRDNAKNTVYLQMNSLNPEDTAVYYCNALDWQYKELDYYWGQGTQVTVSS | high polyreactivity
